Legend:
Details in all cases: 20 nM; 72 h
MCF10A [1] = test: 5+ nucleoli phenotype percent effect (relative to siNT 0% and siKIF11 100%); higher = more cells with five or more nucleoli
Procedure: (§1)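 After 72 h, cells were fixed and stained with Hoechst and anti-fibrillarin, and nucleoli per nucleus were counted with CellProfiler. Values are plate-adjusted percent effect for the one-nucleolus and 5+ nucleoli phenotypes, normalised to siNT (0%) and to the positive controls siNOL11 or siKIF11 (100%), as the mean of biological triplicates. Percent viability is the nuclei count relative to siNT.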

MCF10A [2] = test: one-nucleolus phenotype percent effect (relative to siNT 0% and siNOL11 100%); higher = more cells with one nucleolus (ribosome biogenesis inhibition)
Procedure: as §1

MCF10A [3] = test: percent viability (nuclei count relative to siNT); higher = more viable cells
Procedure: as §1

Row | Sequence | 5+ nucleoli phenotype percent effect (MCF10A [1]) [%] | one-nucleolus phenotype percent effect (MCF10A [2]) [%] | percent viability (MCF10A [3]) [%]
1 | GAAUACGUCUGGUUGAUCC [hsa-miR-6082] | 67.8 | -25.8 | 186
2 | CAAAGAGGAAGGUCCCAUUAC [hsa-miR-583] | -24.7 | 27.5 | 69.2
3 | AGUGGCAAAGUCUUUCCAUAU [hsa-miR-3688-5p] | -15.4 | 16 | 31.6
4 | CUGGGUUGGGCUGGGCUGGG [hsa-miR-4507] | -11.1 | -1.41 | 28.4
5 | GCUGACUCCUAGUCCAGGGCUC [hsa-miR-345-5p] | 31.9 | -8.97 | 100
6 | GGCUACAACACAGGACCCGGGC [hsa-miR-187-5p] | 15.6 | -18.2 | 136
7 | UCCCUGUCCUCCAGGAGCUCACG [hsa-miR-339-5p] | -0.871 | 0.467 | 51.6
8 | CUUGGAUUUUCCUGGGCCUCAG [hsa-miR-5004-3p] | -12 | 4.88 | 51.4
9 | CCAGGCUCUGCAGUGGGA [hsa-miR-3155b] | 29.5 | -8.6 | 65.5
10 | AAUGUGGACUGGUGUGACCAAA [hsa-miR-4491] | 20.6 | -0.704 | 45.4
11 | UGGUGGAGGAAGAGGGCAGCUC [hsa-miR-6880-5p] | -19.7 | -4.17 | 3.74
12 | GAGUUCUACAGUCAGAC [hsa-miR-3168] | -12.9 | -2.63 | 22.3
13 | AAUCUGAGAAGGCGCACAAGGU [hsa-miR-3200-5p] | -28.4 | 2.91 | 32.7
14 | AUCGCUUUACCAUUCAUGUU [hsa-miR-4790-5p] | -9.48 | 16.1 | 34.2
15 | UCUCACUGUAGCCUCGAACCCC [hsa-miR-1304-3p] | 22.9 | -27.3 | 44.7
16 | UGAGGUGACCGCAGAUGGGAA [hsa-miR-7854-3p] | -6.86 | 29.8 | 14.8
17 | CGUCUUACCCAGCAGUGUUUGG [hsa-miR-200c-5p] | -1.15 | -5.6 | 79
18 | GUAGCACCUUGCAGGAUAAGGU [hsa-miR-5682] | 12.2 | -21.5 | 72.9
19 | AUUGGACUGCUGAUGGCCCGU [hsa-miR-4529-3p] | -12.1 | 19.5 | 48.3
20 | AGGCAAGAUGCUGGCAUAGCU [hsa-miR-31-5p] | -4.74 | 26 | 16.8

Row | Sequence | 5+ nucleoli phenotype percent effect (MCF10A [1]) [%] | one-nucleolus phenotype percent effect (MCF10A [2]) [%] | percent viability (MCF10A [3]) [%]
21 | CAUGCCUUGAGUGUAGGACCGU [hsa-miR-532-5p] | -20.1 | 19.3 | 19.5
22 | UAUUCAGGAAGGUGUUACUUAA [hsa-miR-506-5p] | -1.47 | -9.8 | 91
23 | ACAGGGAGGAGAUUGUA [hsa-miR-4441] | -15.6 | 46.5 | 18.5
24 | UUGCAUAGUCACAAAAGUGAUC [hsa-miR-153] | 83 | -31.1 | 116
25 | CAAAAACCGCAAUUACUUUUGCA [hsa-miR-548h-3p] | -11 | -6.67 | 52
26 | UGCCUGGAACAUAGUAGGGACU [hsa-miR-3116] | -20.8 | 2.45 | 23.8
27 | UGCAAGACGGAUACUGUCAUCU [hsa-miR-4696] | -15.7 | -7.62 | 92.5
28 | CAGCAGGGGAGAGAGAGGAGUC [hsa-miR-6510-5p] | -10.7 | 20.8 | 27.9
29 | CUCCUACAUAUUAGCAUUAACA [hsa-miR-155-3p] | 6.71 | -5.11 | 119
30 | GGCUCAAUCUCUGGUCCUGCAGCC [hsa-miR-7158-5p] | 25.6 | -21.5 | 132
31 | CAAAAACCACAGUUUCUUUUGC [hsa-miR-548d-3p] | -4.46 | -0.45 | 65.5
32 | GAGGUUUGGGGAGGAUUUGCU [hsa-miR-4748] | -23.1 | 39.1 | 24.1
33 | AAGUGCUGUCAUAGCUGAGGUC [hsa-miR-512-3p] | 45.1 | -17.8 | 69.7
34 | UGGGAAUGGGGGUAAGGGCC [hsa-miR-6716-5p] | -19.9 | 19.7 | 28.8
35 | UUCCCAGCCAACGCACCA [hsa-miR-7977] | 20.4 | -23.2 | 63.8
36 | CAAAAACCGGCAAUUACUUUUG [hsa-miR-548ac] | 8.34 | -15.1 | 72.6
37 | UUGUGGGUGGGCAGAAGUCUGU [hsa-miR-6759-5p] | -37.5 | 49.5 | 21.7
38 | UGUGUUAGAAUAGGGGCAAUAA [hsa-miR-3152-3p] | -11.7 | 4.92 | 35.1
39 | AAAACGGUGAGAUUUUGUUUU [hsa-miR-553] | 65.7 | -24.2 | 103
40 | UGGGUGGUCUGGAGAUUUGUGC [hsa-miR-1293] | -9.27 | -46.3 | 7.23

Row | Sequence | 5+ nucleoli phenotype percent effect (MCF10A [1]) [%] | one-nucleolus phenotype percent effect (MCF10A [2]) [%] | percent viability (MCF10A [3]) [%]
41 | ACCUGAGGUUGUGCAUUUCUAA [hsa-miR-544b] | -17.6 | 20.9 | 45.3
42 | CAAAUGGACAGGAUAACACCU [hsa-miR-4694-3p] | -11.7 | 11.8 | 35.9
43 | UACAAGUCAGGAGCUGAAGCAG [hsa-miR-6882-5p] | 1.17 | -8.28 | 45.8
44 | CUGAACUAGAGAUUGGGCCCA [hsa-miR-7158-3p] | -10.2 | 16 | 32.7
45 | GUGCGUGGUGGCUCGAGGCGGGG [hsa-miR-6821-5p] | 24.3 | -27.7 | 82.1
46 | UCGUGGCCUGGUCUCCAUUAU [hsa-miR-1204] | 2.14 | -7.25 | 48.3
47 | UGCCCUUCUCUCCUCCUGCCU [hsa-miR-6886-3p] | -2.46 | -6.37 | 35.2
48 | UGGCCCUGACUGAAGACCAGCAGU [hsa-miR-1291] | 23.5 | 5.12 | 51
49 | CAAUGUUUCCACAGUGCAUCAC [hsa-miR-33a-3p] | 2.57 | -10.4 | 51.1
50 | CCAAAACUGCAGUUACUUUUGC [hsa-miR-548o-3p] | 27.5 | -18 | 99.8
51 | CAGCAGCAAUUCAUGUUUUGAA [hsa-miR-424-5p] | -8.58 | 24 | 77.3
52 | UGAGGUAGUAGUUUCUU [hsa-miR-4500] | 43.2 | -31.4 | 89.3
53 | AGAGGUAUAGGGCAUGGGAA [hsa-miR-202-3p] | 3.86 | 10.1 | 42.3
54 | AACAUUCAACCUGUCGGUGAGU [hsa-miR-181c-5p] | 3.6 | 6.56 | 79
55 | CACUAGAUUGUGAGCUCCUGGA [hsa-miR-28-3p] | 12.4 | -9.21 | 92.2
56 | CACCUUUGUGUCCCCAUCCUGCA [hsa-miR-6782-3p] | 49.2 | -13.1 | 51.1
57 | UAUAAAAUGAGGGCAGUAAGAC [hsa-miR-3163] | 30.5 | -19.2 | 53
58 | UGCCGCCCUCUCGCUGCUCUAG [hsa-miR-4632-3p] | -6.54 | 7.5 | 64.2
59 | AGCUGUAAUUAGUCAGUUUUCU [hsa-miR-1537-5p] | 31.8 | -20.9 | 117

— the supplement of paper PMC10899765
